The values that follow come from article PMC5014329.

The stoichiometry N is the number of molecules, sites or subunits per partner or assembly.

The target of assay [1] is M2 (amino acids 42–141) (Streptococcus pyogenes (group A Streptococcus), strain M2 (AP2)). Kind of assay: crystal structure.
Assay [2] deals with M22 (42–120) (Streptococcus pyogenes (group A Streptococcus), strain M22 (Sir22)). Kind of assay: crystal structure.

“M2 (amino acids 42–141) (domain or fragment)” gave a stoichiometry N in assay [1] of 2.
Take M22 (42–120) (domain or fragment): in assay [2], the stoichiometry N was 2.
